The assay has as its target T1, CD3 epsilon homodimer protein (UniProt P07766 23-126).
T1 construct: Construct of the homodimer is not described; also called CD3 (CD3 epsilon)
Description: SPR Biacore T200, CD3e homodimer on chip, antibody analyte.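 Also: CD3 epsilon homodimer amine-coupled on CM4 sensor chip, antibodies injected as analyte at 25 °C in HBS-EP+, ratio ≥0.8 taken as binding retained versus unaltered parent antibody.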 Background: In SPR one partner is held on a chip, and binding of the other changes the refractive index at the surface.

T1 sequence (P07766 23-126): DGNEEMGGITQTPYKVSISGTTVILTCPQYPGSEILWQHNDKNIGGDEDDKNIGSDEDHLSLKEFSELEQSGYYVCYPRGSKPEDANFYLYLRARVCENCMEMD

B1: GLS3000 S56N one-arm antibody (antibody, human IgG1, kappa, L234A L235A, N297A, name in Kabat numbering)
light: DIVMTQSPLSLPVTPGEPASISCRSSQSLVHSNRNTYLHWYQQKPGQAPRLLIYKVSNRFNGVPDRFSGSGSGTDFTLKISRVEAEDVGVYYCGQGTQVPYTFGQGTKLEIKRTVAAPSVFIFPPSDEQLKSGTASVVCLLNNFYPREAKVQWKVDNALQSGNSQESVTEQDSKDSTYSLSSTLTLSKADYEKHKVYACEVTHQGLSSPVTKSFNRGEC
heavy: QVQLVESGGGVVQPGRSLRLSCAASGFTFSNAWMHWVRQAPGKGLEWVAQIKAKSNNYATYYAESVKGRFTISRDDSKNSLYLQMNSLKTEDTAVYYCRYVHYGAYYGVDAWGQGTTVTVSSASTKGPSVFPLAPSSKSTSGGTAALGCLVKDYFPEPVTVSWNSGALTSGVHTFPAVLQSSGLYSLSSVVTVPSSSLGTQTYICNVNHKPSNTKVDKKVEPKSCDKTHTCPPCPAPEAAGGPSVFLFPPKPKDTLMISRTPEVTCVVVDVSHEDPEVKFNWYVDGVEVHNAKTKPREEQYASTYRVVSVLTVLHQDWLNGKEYKCKVSNKALPAPIEKTISKAKGQPREPQVYTLPPSRCELTKNQVSLSCAVKGFYPSDIAVEWESNGQPENNYKTTPPVLDSDGSFFLVSKLTVDKSRWQQGNVFSCSVMHEALHNHYTQKSLSLSPDYKDDDDK
chain: EPKSSDKTHTCPPCPAPELLGGPSVFLFPPKPKDTLMISRTPEVTCVVVDVSHEDPEVKFNWYVDGVEVHNAKTKPREEQYNSTYRVVSVLTVLHQDWLNGKEYKCKVSNKALPAPIEKTISKAKGQPREPQVCTLPPSRDELTKNQVSLWCLVKGFYPSDIAVEWESNGQPENNYKTTPPVLDSDGSFFLYSKLTVDKSRWQQGNVFSCSVMHEALHNRYTQKSLSLSP
As for B1, the “ratio of amounts bound (altered form/GLS3000)” value is 0.92.

B2: GLS3000 S56T one-arm antibody (antibody, human IgG1, kappa, L234A L235A, N297A, name in Kabat numbering)
light: DIVMTQSPLSLPVTPGEPASISCRSSQSLVHSNRNTYLHWYQQKPGQAPRLLIYKVSNRFTGVPDRFSGSGSGTDFTLKISRVEAEDVGVYYCGQGTQVPYTFGQGTKLEIKRTVAAPSVFIFPPSDEQLKSGTASVVCLLNNFYPREAKVQWKVDNALQSGNSQESVTEQDSKDSTYSLSSTLTLSKADYEKHKVYACEVTHQGLSSPVTKSFNRGEC
heavy: QVQLVESGGGVVQPGRSLRLSCAASGFTFSNAWMHWVRQAPGKGLEWVAQIKAKSNNYATYYAESVKGRFTISRDDSKNSLYLQMNSLKTEDTAVYYCRYVHYGAYYGVDAWGQGTTVTVSSASTKGPSVFPLAPSSKSTSGGTAALGCLVKDYFPEPVTVSWNSGALTSGVHTFPAVLQSSGLYSLSSVVTVPSSSLGTQTYICNVNHKPSNTKVDKKVEPKSCDKTHTCPPCPAPEAAGGPSVFLFPPKPKDTLMISRTPEVTCVVVDVSHEDPEVKFNWYVDGVEVHNAKTKPREEQYASTYRVVSVLTVLHQDWLNGKEYKCKVSNKALPAPIEKTISKAKGQPREPQVYTLPPSRCELTKNQVSLSCAVKGFYPSDIAVEWESNGQPENNYKTTPPVLDSDGSFFLVSKLTVDKSRWQQGNVFSCSVMHEALHNHYTQKSLSLSPDYKDDDDK
chain: EPKSSDKTHTCPPCPAPELLGGPSVFLFPPKPKDTLMISRTPEVTCVVVDVSHEDPEVKFNWYVDGVEVHNAKTKPREEQYNSTYRVVSVLTVLHQDWLNGKEYKCKVSNKALPAPIEKTISKAKGQPREPQVCTLPPSRDELTKNQVSLWCLVKGFYPSDIAVEWESNGQPENNYKTTPPVLDSDGSFFLYSKLTVDKSRWQQGNVFSCSVMHEALHNRYTQKSLSLSP
Take B2: the “ratio of amounts bound (altered form/GLS3000)” value worked out at 0.97.

B3: GLS3000 S56R one-arm antibody (antibody, human IgG1, kappa, L234A L235A, N297A, name in Kabat numbering)
light: DIVMTQSPLSLPVTPGEPASISCRSSQSLVHSNRNTYLHWYQQKPGQAPRLLIYKVSNRFRGVPDRFSGSGSGTDFTLKISRVEAEDVGVYYCGQGTQVPYTFGQGTKLEIKRTVAAPSVFIFPPSDEQLKSGTASVVCLLNNFYPREAKVQWKVDNALQSGNSQESVTEQDSKDSTYSLSSTLTLSKADYEKHKVYACEVTHQGLSSPVTKSFNRGEC
heavy: QVQLVESGGGVVQPGRSLRLSCAASGFTFSNAWMHWVRQAPGKGLEWVAQIKAKSNNYATYYAESVKGRFTISRDDSKNSLYLQMNSLKTEDTAVYYCRYVHYGAYYGVDAWGQGTTVTVSSASTKGPSVFPLAPSSKSTSGGTAALGCLVKDYFPEPVTVSWNSGALTSGVHTFPAVLQSSGLYSLSSVVTVPSSSLGTQTYICNVNHKPSNTKVDKKVEPKSCDKTHTCPPCPAPEAAGGPSVFLFPPKPKDTLMISRTPEVTCVVVDVSHEDPEVKFNWYVDGVEVHNAKTKPREEQYASTYRVVSVLTVLHQDWLNGKEYKCKVSNKALPAPIEKTISKAKGQPREPQVYTLPPSRCELTKNQVSLSCAVKGFYPSDIAVEWESNGQPENNYKTTPPVLDSDGSFFLVSKLTVDKSRWQQGNVFSCSVMHEALHNHYTQKSLSLSPDYKDDDDK
chain: EPKSSDKTHTCPPCPAPELLGGPSVFLFPPKPKDTLMISRTPEVTCVVVDVSHEDPEVKFNWYVDGVEVHNAKTKPREEQYNSTYRVVSVLTVLHQDWLNGKEYKCKVSNKALPAPIEKTISKAKGQPREPQVCTLPPSRDELTKNQVSLWCLVKGFYPSDIAVEWESNGQPENNYKTTPPVLDSDGSFFLYSKLTVDKSRWQQGNVFSCSVMHEALHNRYTQKSLSLSP
Regarding B3, the “ratio of amounts bound (altered form/GLS3000)” value is 1.36.

B4: GLS3000 S56P one-arm antibody (antibody, human IgG1, kappa, L234A L235A, N297A, name in Kabat numbering)
light: DIVMTQSPLSLPVTPGEPASISCRSSQSLVHSNRNTYLHWYQQKPGQAPRLLIYKVSNRFPGVPDRFSGSGSGTDFTLKISRVEAEDVGVYYCGQGTQVPYTFGQGTKLEIKRTVAAPSVFIFPPSDEQLKSGTASVVCLLNNFYPREAKVQWKVDNALQSGNSQESVTEQDSKDSTYSLSSTLTLSKADYEKHKVYACEVTHQGLSSPVTKSFNRGEC
heavy: QVQLVESGGGVVQPGRSLRLSCAASGFTFSNAWMHWVRQAPGKGLEWVAQIKAKSNNYATYYAESVKGRFTISRDDSKNSLYLQMNSLKTEDTAVYYCRYVHYGAYYGVDAWGQGTTVTVSSASTKGPSVFPLAPSSKSTSGGTAALGCLVKDYFPEPVTVSWNSGALTSGVHTFPAVLQSSGLYSLSSVVTVPSSSLGTQTYICNVNHKPSNTKVDKKVEPKSCDKTHTCPPCPAPEAAGGPSVFLFPPKPKDTLMISRTPEVTCVVVDVSHEDPEVKFNWYVDGVEVHNAKTKPREEQYASTYRVVSVLTVLHQDWLNGKEYKCKVSNKALPAPIEKTISKAKGQPREPQVYTLPPSRCELTKNQVSLSCAVKGFYPSDIAVEWESNGQPENNYKTTPPVLDSDGSFFLVSKLTVDKSRWQQGNVFSCSVMHEALHNHYTQKSLSLSPDYKDDDDK
chain: EPKSSDKTHTCPPCPAPELLGGPSVFLFPPKPKDTLMISRTPEVTCVVVDVSHEDPEVKFNWYVDGVEVHNAKTKPREEQYNSTYRVVSVLTVLHQDWLNGKEYKCKVSNKALPAPIEKTISKAKGQPREPQVCTLPPSRDELTKNQVSLWCLVKGFYPSDIAVEWESNGQPENNYKTTPPVLDSDGSFFLYSKLTVDKSRWQQGNVFSCSVMHEALHNRYTQKSLSLSP
For the molecule B4, the “ratio of amounts bound (altered form/GLS3000)” value was found to be 0.95.

B5: GLS3000 S56Q one-arm antibody (antibody, human IgG1, kappa, L234A L235A, N297A, name in Kabat numbering)
light: DIVMTQSPLSLPVTPGEPASISCRSSQSLVHSNRNTYLHWYQQKPGQAPRLLIYKVSNRFQGVPDRFSGSGSGTDFTLKISRVEAEDVGVYYCGQGTQVPYTFGQGTKLEIKRTVAAPSVFIFPPSDEQLKSGTASVVCLLNNFYPREAKVQWKVDNALQSGNSQESVTEQDSKDSTYSLSSTLTLSKADYEKHKVYACEVTHQGLSSPVTKSFNRGEC
heavy: QVQLVESGGGVVQPGRSLRLSCAASGFTFSNAWMHWVRQAPGKGLEWVAQIKAKSNNYATYYAESVKGRFTISRDDSKNSLYLQMNSLKTEDTAVYYCRYVHYGAYYGVDAWGQGTTVTVSSASTKGPSVFPLAPSSKSTSGGTAALGCLVKDYFPEPVTVSWNSGALTSGVHTFPAVLQSSGLYSLSSVVTVPSSSLGTQTYICNVNHKPSNTKVDKKVEPKSCDKTHTCPPCPAPEAAGGPSVFLFPPKPKDTLMISRTPEVTCVVVDVSHEDPEVKFNWYVDGVEVHNAKTKPREEQYASTYRVVSVLTVLHQDWLNGKEYKCKVSNKALPAPIEKTISKAKGQPREPQVYTLPPSRCELTKNQVSLSCAVKGFYPSDIAVEWESNGQPENNYKTTPPVLDSDGSFFLVSKLTVDKSRWQQGNVFSCSVMHEALHNHYTQKSLSLSPDYKDDDDK
chain: EPKSSDKTHTCPPCPAPELLGGPSVFLFPPKPKDTLMISRTPEVTCVVVDVSHEDPEVKFNWYVDGVEVHNAKTKPREEQYNSTYRVVSVLTVLHQDWLNGKEYKCKVSNKALPAPIEKTISKAKGQPREPQVCTLPPSRDELTKNQVSLWCLVKGFYPSDIAVEWESNGQPENNYKTTPPVLDSDGSFFLYSKLTVDKSRWQQGNVFSCSVMHEALHNRYTQKSLSLSP
Consider B5, for which the “ratio of amounts bound (altered form/GLS3000)” value amounted to 1.04.

B6: GLS3000 S56V one-arm antibody (antibody, human IgG1, kappa, L234A L235A, N297A, name in Kabat numbering)
light: DIVMTQSPLSLPVTPGEPASISCRSSQSLVHSNRNTYLHWYQQKPGQAPRLLIYKVSNRFVGVPDRFSGSGSGTDFTLKISRVEAEDVGVYYCGQGTQVPYTFGQGTKLEIKRTVAAPSVFIFPPSDEQLKSGTASVVCLLNNFYPREAKVQWKVDNALQSGNSQESVTEQDSKDSTYSLSSTLTLSKADYEKHKVYACEVTHQGLSSPVTKSFNRGEC
heavy: QVQLVESGGGVVQPGRSLRLSCAASGFTFSNAWMHWVRQAPGKGLEWVAQIKAKSNNYATYYAESVKGRFTISRDDSKNSLYLQMNSLKTEDTAVYYCRYVHYGAYYGVDAWGQGTTVTVSSASTKGPSVFPLAPSSKSTSGGTAALGCLVKDYFPEPVTVSWNSGALTSGVHTFPAVLQSSGLYSLSSVVTVPSSSLGTQTYICNVNHKPSNTKVDKKVEPKSCDKTHTCPPCPAPEAAGGPSVFLFPPKPKDTLMISRTPEVTCVVVDVSHEDPEVKFNWYVDGVEVHNAKTKPREEQYASTYRVVSVLTVLHQDWLNGKEYKCKVSNKALPAPIEKTISKAKGQPREPQVYTLPPSRCELTKNQVSLSCAVKGFYPSDIAVEWESNGQPENNYKTTPPVLDSDGSFFLVSKLTVDKSRWQQGNVFSCSVMHEALHNHYTQKSLSLSPDYKDDDDK
chain: EPKSSDKTHTCPPCPAPELLGGPSVFLFPPKPKDTLMISRTPEVTCVVVDVSHEDPEVKFNWYVDGVEVHNAKTKPREEQYNSTYRVVSVLTVLHQDWLNGKEYKCKVSNKALPAPIEKTISKAKGQPREPQVCTLPPSRDELTKNQVSLWCLVKGFYPSDIAVEWESNGQPENNYKTTPPVLDSDGSFFLYSKLTVDKSRWQQGNVFSCSVMHEALHNRYTQKSLSLSP
Take B6: the “ratio of amounts bound (altered form/GLS3000)” value is 0.95.

These data come from patent US20240270846A1 (published 2024).
